B1: HDV Ribozyme (parent)
chain: GGCCGGCAUGGUCCCAGCCUCCUCGCUGGCGCCGGCUGGGCAACAUUCCGAGGGGACCGUCCCCUCGGUAAUGGCGAAUGGGACCCA

Variants of: B1
Test: self-cleavage, relative activity (ratio to wild type); higher = more cleavage; co-transcriptional
In the case of C36U A70U, the self-cleavage is reported as 0.702. Work on C36U C64G yielded a self-cleavage of 0.606. With G35C C84G the self-cleavage was 0.116. G35C C84A showed a self-cleavage of 0.271. G35U C86U gave a self-cleavage of 0.464. In the case of G35U C86G, the self-cleavage is reported as 0.397. G35U C86A gave a self-cleavage of 0.35. Variant C36G C62A has a self-cleavage of 0.0791. Variant C36U G40C has a self-cleavage of 0.0959. G35C U46G gave a self-cleavage of 0.0831. C36U C44G showed a self-cleavage of 0.231. Variant C36U G38A has a self-cleavage of 0.191. C36G G54C gave a self-cleavage of 0.243. For C36G G54A, the self-cleavage was 0.0831. Variant G35U G74C has a self-cleavage of 0.272. In the case of G35U U65C, the self-cleavage is reported as 0.434. For C36G C41A, the self-cleavage was 0.248. Work on C36U A42G yielded a self-cleavage of 0.122. G35U C49G showed a self-cleavage of 0.325. With C36G A70G the self-cleavage was 0.147. For C36U A87G, the self-cleavage was 0.674. For G35C G39U, the self-cleavage was 0.0302. Work on C36A U72A yielded a self-cleavage of 0.277. For C36A U72C, the self-cleavage was 0.0405. C36A U72G gave a self-cleavage of 0.0978. With G35U C41A the self-cleavage was 0.3. Variant G35U C41G has a self-cleavage of 0.188. Work on C36G C86U yielded a self-cleavage of 0.0437. Variant G35C C61U has a self-cleavage of 0.188. G35C C61A gave a self-cleavage of 0.283. C36G C44U showed a self-cleavage of 0.0426. For C36G G74U, the self-cleavage was 0.111. C36G G74C showed a self-cleavage of 0.0723. In the case of G35C U60A, the self-cleavage is reported as 0.192. C36G A45U showed a self-cleavage of 0.0791. With C36U G73A the self-cleavage was 0.428. Variant C36U G73U has a self-cleavage of 0.0692. In the case of G35U G73C, the self-cleavage is reported as 0.185. In the case of C36A G76C, the self-cleavage is reported as 0.241. Variant C36U G53C has a self-cleavage of 0.815. G35U A87C showed a self-cleavage of 0.432. Variant C36G G68U has a self-cleavage of 0.0615. In the case of G35C U47C, the self-cleavage is reported as 0.237. With G35C U47G the self-cleavage was 0.0923. For C36U G55U, the self-cleavage was 0.8. C36A C48A showed a self-cleavage of 0.259. Variant G35U G39A has a self-cleavage of 0.0906. With G35U G54A the self-cleavage was 0.499. Variant G35C G53A has a self-cleavage of 0.172. G35C G53C showed a self-cleavage of 0.208. With C36A G68C the self-cleavage was 0.235. C36A G68U gave a self-cleavage of 0.157. Work on C36U G59C yielded a self-cleavage of 0.923. G35U G59U showed a self-cleavage of 0.53. G35U A51G showed a self-cleavage of 0.356. For C36A C49G, the self-cleavage was 0.0297. In the case of C36U C66G, the self-cleavage is reported as 0.767. In the case of G35U A83U, the self-cleavage is reported as 0.145. For G35U A77C, the self-cleavage was 0.0875. Work on C36U C57G yielded a self-cleavage of 0.79. For C36G G50U, the self-cleavage was 0.101. Work on C36G U60G yielded a self-cleavage of 0.0723. For C36G G76U, the self-cleavage was 0.277. In the case of C36G G76A, the self-cleavage is reported as 0.162. Variant G35U A78C has a self-cleavage of 0.133. Variant G35U A78U has a self-cleavage of 0.0545. In the case of C36U A56U, the self-cleavage is reported as 0.845. With G35U U60G the self-cleavage was 0.285. In the case of G35U A43C, the self-cleavage is reported as 0.208. G35U G80U gave a self-cleavage of 0.223. G35C C49A gave a self-cleavage of 0.119. Variant C36G U46C has a self-cleavage of 0. With G35C C75A the self-cleavage was 0.225. C36G G39A showed a self-cleavage of 0.0326. C36A U60G gave a self-cleavage of 0.178. Work on C36A G55U yielded a self-cleavage of 0.124. C36A G55C showed a self-cleavage of 0.196. Variant C36A U46C has a self-cleavage of 0.166. C36G A51G gave a self-cleavage of 0.151. Work on G35U C48U yielded a self-cleavage of 0.554. In the case of G35U C36G, the self-cleavage is reported as 0.104. In the case of C36U G54C, the self-cleavage is reported as 0.872. C36A A83G gave a self-cleavage of 0.159.

— the RNAGym collection of RNA variant scans (doi:10.7554/elife.80360)
